Data as given in article PMC11638070.

Biological target: mitochondrial heat shock protein 60, wild type (mtHsp60) (human), P10809
Assay: SEC; analytical SEC of each protein alone (mtHsp60 samples 17 µM monomer); Superdex 200 Increase 3.2/300, room temperature, 20 mM HEPES pH 7.5, 100 mM KCl, 10 mM MgCl2
Conditions: remark: other sources report otherwise

stoichiometry N: 7
B1: mitochondrial heat shock protein 60, wild type (mtHsp60), P10809 27-573 (natural protein)
chain: AKDVKFGADARALMLQGVDLLADAVAVTMGPKGRTVIIEQSWGSPKVTKDGVTVAKSIDLKDKYKNIGAKLVQDVANNTNEEAGDGTTTATVLARSIAKEGFEKISKGANPVEIRRGVMLAVDAVIAELKKQSKPVTTPEEIAQVATISANGDKEIGNIISDAMKKVGRKGVITVKDGKTLNDELEIIEGMKFDRGYISPYFINTSKGQKCEFQDAYVLLSEKKISSIQSIVPALEIANAHRKPLVIIAEDVDGEALSTLVLNRLKVGLQVVAVKAPGFGDNRKNQLKDMAIATGGAVFGEEGLTLNLEDVQPHDLGKVGEVIVTKDDAMLLKGKGDKAQIEKRIQEIIEQLDVTTSEYEKEKLNERLAKLSDGVAVLKVGGTSDVEVNEKKDRVTDALNATRAAVEEGIVLGGGCALLRCIPALDSLTPANEDQKIGIEIIKRTLKIPAMTIAKNAGVEGSLIVEKIMQSSSEVGYDAMAGDFVNMVEKGIIDPTKVVRTALLDAAGVASLLTTAEVVVTEIPKEEKDPGMGAMGGMGGGMGGGMF
